Reference: patent publication US8114832

What was measured:
[1] = biological target: T1, non-amyloid fragment FP10 of human fibrin α-chain(148-157)
T1 chain: KRLEVDIDIK

[2] = biological target: T2, human fibrin α-chain(148-160) amyloid fragment with Lys157Gly mutation (FP13)
T2 chain: KRLEVDIDIGIRS

[3] = biological target: human-modified gelatin (Gelofusine), stored at 4° C.
[4] = biological target: T3, freshly dissolved FP13 K157G
T3 chain: KRLEVDIDIGIRS

[5] = biological target: glycated hemoglobin (Hb-AGE), P69905
Chain of glycated hemoglobin (Hb-AGE), P69905 (P69905 2-142, chain 1 of 2): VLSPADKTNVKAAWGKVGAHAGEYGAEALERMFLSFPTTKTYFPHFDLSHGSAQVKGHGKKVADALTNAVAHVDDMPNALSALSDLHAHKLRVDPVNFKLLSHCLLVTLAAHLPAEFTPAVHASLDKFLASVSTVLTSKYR
Chain of glycated hemoglobin (Hb-AGE), P69905 (chain, as listed by the source, chain 2 of 2): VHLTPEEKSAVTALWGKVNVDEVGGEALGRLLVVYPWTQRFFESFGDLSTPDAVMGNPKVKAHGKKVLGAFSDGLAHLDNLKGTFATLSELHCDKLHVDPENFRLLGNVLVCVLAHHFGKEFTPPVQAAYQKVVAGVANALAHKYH

[6] = biological target: Human amyloid-β (1-40) Dutch type
[7] = biological target: modified gelatin for infusion stored at 37° C.
mIAPP = biological target: T4, mIAPP
T4 sequence (P12968 38-74, species assumed, looked up): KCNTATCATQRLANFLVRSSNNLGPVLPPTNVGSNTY

[8] = biological target: reduced-alkylated MSA (alkyl-MSA), P07724
Chain of reduced-alkylated MSA (alkyl-MSA), P07724 (P07724 25-608): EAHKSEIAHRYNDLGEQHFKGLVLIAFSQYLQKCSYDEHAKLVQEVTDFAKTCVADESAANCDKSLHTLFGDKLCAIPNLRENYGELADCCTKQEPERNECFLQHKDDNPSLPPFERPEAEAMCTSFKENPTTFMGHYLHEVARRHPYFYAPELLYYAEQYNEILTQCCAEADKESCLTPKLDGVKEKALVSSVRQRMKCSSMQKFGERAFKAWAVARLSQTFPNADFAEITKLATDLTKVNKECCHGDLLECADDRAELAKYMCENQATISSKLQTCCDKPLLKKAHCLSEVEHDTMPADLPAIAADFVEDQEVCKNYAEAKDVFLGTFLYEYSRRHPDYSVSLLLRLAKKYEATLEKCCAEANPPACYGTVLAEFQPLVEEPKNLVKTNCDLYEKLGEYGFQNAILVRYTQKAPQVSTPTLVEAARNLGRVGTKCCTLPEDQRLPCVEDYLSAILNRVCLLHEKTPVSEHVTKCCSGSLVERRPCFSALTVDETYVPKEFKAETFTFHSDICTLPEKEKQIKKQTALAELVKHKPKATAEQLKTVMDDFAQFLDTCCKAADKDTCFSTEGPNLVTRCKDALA

[9] = biological target: heat-denatured MSA, P07724
Chain of heat-denatured MSA, P07724 (P07724 25-608): as above

[10] = biological target: Native MSA (nMSA), P07724
Chain of Native MSA (nMSA), P07724 (P07724 25-608): as above

[11] = biological target: T5, heat-denatured OVA (dOVA), P01012
T5 chain: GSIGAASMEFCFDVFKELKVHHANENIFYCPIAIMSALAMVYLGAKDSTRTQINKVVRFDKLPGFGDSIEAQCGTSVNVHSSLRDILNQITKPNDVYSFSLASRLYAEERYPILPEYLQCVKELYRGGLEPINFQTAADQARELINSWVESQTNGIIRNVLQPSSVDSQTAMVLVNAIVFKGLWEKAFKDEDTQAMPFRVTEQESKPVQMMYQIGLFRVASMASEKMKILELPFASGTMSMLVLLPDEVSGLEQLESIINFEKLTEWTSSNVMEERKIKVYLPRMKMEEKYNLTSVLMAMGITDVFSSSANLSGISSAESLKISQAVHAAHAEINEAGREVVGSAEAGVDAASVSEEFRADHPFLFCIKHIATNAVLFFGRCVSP

[12] = biological target: heat/acid denatured glucagon, P01275
Chain of heat/acid denatured glucagon, P01275 (P01275 53-81): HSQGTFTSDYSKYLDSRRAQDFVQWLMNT

Chain of endostatin, P39060 (P39060 whole entry, looked up): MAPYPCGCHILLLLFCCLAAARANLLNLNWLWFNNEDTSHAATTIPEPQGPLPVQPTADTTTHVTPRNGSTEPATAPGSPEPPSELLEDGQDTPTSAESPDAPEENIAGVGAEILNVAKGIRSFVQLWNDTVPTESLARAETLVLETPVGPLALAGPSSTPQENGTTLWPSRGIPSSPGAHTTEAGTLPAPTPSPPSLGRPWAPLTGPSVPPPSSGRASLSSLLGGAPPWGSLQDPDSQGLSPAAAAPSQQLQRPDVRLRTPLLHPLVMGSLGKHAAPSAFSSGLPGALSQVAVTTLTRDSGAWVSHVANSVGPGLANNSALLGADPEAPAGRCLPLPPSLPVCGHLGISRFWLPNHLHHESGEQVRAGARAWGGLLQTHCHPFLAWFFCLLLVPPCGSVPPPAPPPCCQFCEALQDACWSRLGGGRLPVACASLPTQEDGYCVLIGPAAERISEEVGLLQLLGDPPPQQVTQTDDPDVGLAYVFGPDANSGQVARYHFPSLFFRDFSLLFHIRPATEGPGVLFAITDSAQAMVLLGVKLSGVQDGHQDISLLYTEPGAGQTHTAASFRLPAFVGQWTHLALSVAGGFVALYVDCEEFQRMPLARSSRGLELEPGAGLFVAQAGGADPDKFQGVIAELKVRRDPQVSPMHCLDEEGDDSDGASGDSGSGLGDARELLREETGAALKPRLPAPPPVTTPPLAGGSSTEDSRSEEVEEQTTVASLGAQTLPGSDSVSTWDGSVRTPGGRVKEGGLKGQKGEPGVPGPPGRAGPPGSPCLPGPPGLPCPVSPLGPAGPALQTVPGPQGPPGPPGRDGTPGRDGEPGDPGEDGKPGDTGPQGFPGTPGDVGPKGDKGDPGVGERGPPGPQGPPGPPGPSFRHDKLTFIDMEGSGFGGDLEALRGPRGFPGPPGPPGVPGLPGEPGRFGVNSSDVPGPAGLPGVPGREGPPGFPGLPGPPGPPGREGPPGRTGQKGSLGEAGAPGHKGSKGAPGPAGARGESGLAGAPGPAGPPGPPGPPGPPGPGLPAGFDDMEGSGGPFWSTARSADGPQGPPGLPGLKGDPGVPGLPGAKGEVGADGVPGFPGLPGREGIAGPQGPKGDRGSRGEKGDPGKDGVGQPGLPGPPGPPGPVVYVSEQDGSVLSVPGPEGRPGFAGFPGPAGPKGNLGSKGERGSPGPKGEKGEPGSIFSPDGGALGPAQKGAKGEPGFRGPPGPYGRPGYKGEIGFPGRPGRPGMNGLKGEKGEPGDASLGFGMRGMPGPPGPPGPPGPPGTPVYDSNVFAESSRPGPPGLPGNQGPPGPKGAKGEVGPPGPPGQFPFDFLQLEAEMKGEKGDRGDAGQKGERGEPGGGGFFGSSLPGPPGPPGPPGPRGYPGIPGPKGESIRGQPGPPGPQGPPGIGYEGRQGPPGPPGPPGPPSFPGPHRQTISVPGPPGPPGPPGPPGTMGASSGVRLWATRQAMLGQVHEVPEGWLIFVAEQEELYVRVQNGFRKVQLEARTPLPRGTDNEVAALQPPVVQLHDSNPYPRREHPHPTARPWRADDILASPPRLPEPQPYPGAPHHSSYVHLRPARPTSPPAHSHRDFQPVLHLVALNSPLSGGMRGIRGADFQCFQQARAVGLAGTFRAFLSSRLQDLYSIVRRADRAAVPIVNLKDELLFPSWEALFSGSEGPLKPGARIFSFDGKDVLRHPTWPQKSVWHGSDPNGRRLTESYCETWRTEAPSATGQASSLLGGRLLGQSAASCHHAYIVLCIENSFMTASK
Chain of native Hb, P69905 (P69905 2-142, chain 1 of 2): as the sequence (P69905 2-142, chain 1 of 2) above
Chain of native Hb, P69905 (chain, as listed by the source, chain 2 of 2): as the sequence (chain, as listed by the source, chain 2 of 2) above

B1: factor XII (protein)
chain: IPPWEAPKEHKYKAEEHTVVLTVTGEPCHFPFQYHRQLYHKCTHKGRPGPQPWCATTPNFDQDQRWGYCLEPKKVKDHCSKHSPCQKGGTCVNMPSGPHCLCPQHLTGNHCQKEKCFEPQLLRFFHKNEIWYRTEQAAVARCQCKGPDAHCQRLASQACRTNPCLHGGRCLEVEGHRLCHCPVGYTGAFCDVDTKASCYDGRGLSYRGLARTTLSGAPCQPWASEATYRNVTAEQARNWGLGGHAFCRNPDNDIRPWCFVLNRDRLSWEYCDLAQCQTPTQAAPPTPVSPRLHVPLMPAQPAPPKPQPTTRTPPQSQTPGALPAKREQPPSLTRNGPLSCGQRLRKSLSSMTRVVGGLVALRGAHPYIAALYWGHSFCAGSLIAPCWVLTAAHCLQDRPAPEDLTVVLGQERRNHSCEPCQTLAVRSYRLHEAFSPVSYQHDLALLRLQEDADGSCALLSPYVQPVCLPSGAARPSETTLCQVAGWGHQFEGAEEYASFLQEAQVPFLSLERCSAPDVHGSSILPGMLCAGFLEGGTDACQGDSGGPLVCEDQAAERRLTLQGIISWGSGCGDRNKPGVYTDVAYYLAWIREHTVS
conversion of Chromozym PK, upon formation of kallikrein from prekallikrein by activated factor XII [1]: non-amyloid controls FP10 and mIAPP do not activate factor XII
auto-activation of purified factor XII, substrate S-2222 (native Hb, P69905): Freshly dissolved native Hb, ultracentrifuged for one hour at 100,000*g, and freshly dissolved FP13 K157G did not or hardly auto-activate factor XII (not shown)
auto-activation of purified factor XII, substrate S-2222 [2]: FP13 K157G and Hb-AGE have a potency to induce auto-activation that was similar to the established surface activator DXS500k
conversion of Chromozym PK, upon formation of kallikrein from prekallikrein by activated factor XII [2]: amyloid-like peptide aggregates of FP13 and Aβ stimulate the activation of factor XII
chromogenic kallikrein activity assay [3]: Only gelatin kept at 37 °C activated factor XII
factor XII/kallikrein chromogenic assay (LAM12): cross-β structure conformation rich peptides LAM12 and TTR11 stimulate factor XII activation, to a similar extent as kaolin
auto-activation of purified factor XII, substrate S-2222 [4]: Freshly dissolved native Hb, ultracentrifuged for one hour at 100,000*g, and freshly dissolved FP13 K157G did not or hardly auto-activate factor XII (not shown)
auto-activation of purified factor XII, substrate S-2222 [5]: FP13 K157G and Hb-AGE have a potency to induce auto-activation that was similar to the established surface activator DXS500k
auto-activation of purified factor XII, substrate S-2222 [6]: the potency of the Aβ(1-40) E22Q was somewhat lower
conversion of Chromozym PK, upon formation of kallikrein from prekallikrein by activated factor XII [6]: amyloid-like peptide aggregates of FP13 and Aβ stimulate the activation of factor XII
chromogenic kallikrein activity assay [7]: Only gelatin kept at 37 °C activated factor XII
conversion of Chromozym PK, upon formation of kallikrein from prekallikrein by activated factor XII (mIAPP): non-amyloid controls FP10 and mIAPP do not activate factor XII
factor XII/kallikrein chromogenic assay (TTR11): cross-β structure conformation rich peptides LAM12 and TTR11 stimulate factor XII activation, to a similar extent as kaolin

B2: tissue-type plasminogen activator (tPA) (protein)
chain: SYQVICRDEKTQMIYQQHQSWLRPVLRSNRVEYCWCNSGRAQCHSVPVKSCSEPRCFNGGTCQQALYFSDFVCQCPEGFAGKCCEIDTRATCYEDQGISYRGTWSTAESGAECTNWNSSALAQKPYSGRRPDAIRLGLGNHNYCRNPDRDSKPWCYVFKAGKYSSEFCSTPACSEGNSDCYFGNGSAYRGTHSLTESGASCLPWNSMILIGKVYTAQNPSAQALGLGKHNYCRNPDGDAKPWCHVLKNRRLTWEYCDVPSCSTCGLRQYSQPQFRIKGGLFADIASHPWQAAIFAKHRRSPGERFLCGGILISSCWILSAAHCFQERFPPHHLTVILGRTYRVVPGEEEQKFEVEKYIVHKEFDDDTYDNDIALLQLKSDSSRCAQESSVVRTVCLPPADLQLPDWTECELSGYGKHEALSPFYSERLKEAHVRLYPSSRCTSQHLLNRTVTDNMLCAGDTRSGGPQANLHDACQGDSGGPLVCLNDGRMTLVGIISWGLGCGQKDVPGVYTKVTNYLDWIRDNMRP
tPA activation assay (endostatin, P39060): the absence of tPA activating properties in 100 µg ml^-1 endostatin
tPA activation assay (native glucagon, P01275): at high glucagon concentration, also native glucagon has some tPA activating potential
tPA activation assay [8]: Although heat-denatured MSA and alkylated MSA enhance ThT fluorescence to a similar extent, they differ in tPA activating potential
tPA activation assay [9]: Although heat-denatured MSA and alkylated MSA enhance ThT fluorescence to a similar extent, they differ in tPA activating potential
chromogenic Plg-activation assay [2]: The positive control was amyloid fibrin peptide FP13
Plg-activation assay [10]: native MSA enhanced ThT fluorescence to some extent, but this was not reflected by stimulation of tPA activation
Plg-activation assay [11]: The presence of the cross-β structure conformation was established with ThT fluorescence and Plg-activation assays and by TEM imaging
tPA activation assay [12]: a potent activator of tPA was obtained
